Paper PMC3485694 (Structure (London, England : 1993), 2012)

Target: the molecule itself
Experiment: crystal structure

B1: human HisRS Δ507–509 (domain or fragment, UniProt P12081 1-506, looked up)
chain: MAERAALEELVKLQGERVRGLKQQKASAELIEEEVAKLLKLKAQLGPDESKQKFVLKTPKGTRDYSPRQMAVREKVFDVIIRCFKRHGAEVIDTPVFELKETLMGKYGEDSKLIYDLKDQGGELLSLRYDLTVPFARYLAMNKLTNIKRYHIAKVYRRDNPAMTRGRYREFYQCDFDIAGNFDPMIPDAECLKIMCEILSSLQIGDFLVKVNDRRILDGMFAICGVSDSKFRTICSSVDKLDKVSWEEVKNEMVGEKGLAPEVADRIGDYVQQHGGVSLVEQLLQDPKLSQNKQALEGLGDLKLLFEYLTLFGIDDKISFDLSLARGLDYYTGVIYEAVLLQTPAQAGEEPLGVGSVAAGGRYDGLVGMFDPKGRKVPCVGLSIGVERIFSIVEQRLEALEEKIRTTETQVLVASAQKKLLEERLKLVSELWDAGIKAELLYKKNPKLLNQLQYCEEAGIPLVAIIGEQELKDGVIKLRSVTSREEVDVRREDLVEEIKRRTGQPL
binding result: binds

B2: human HisRS Δ1–53_507–509 (domain or fragment, UniProt P12081 54-506, looked up)
chain: FVLKTPKGTRDYSPRQMAVREKVFDVIIRCFKRHGAEVIDTPVFELKETLMGKYGEDSKLIYDLKDQGGELLSLRYDLTVPFARYLAMNKLTNIKRYHIAKVYRRDNPAMTRGRYREFYQCDFDIAGNFDPMIPDAECLKIMCEILSSLQIGDFLVKVNDRRILDGMFAICGVSDSKFRTICSSVDKLDKVSWEEVKNEMVGEKGLAPEVADRIGDYVQQHGGVSLVEQLLQDPKLSQNKQALEGLGDLKLLFEYLTLFGIDDKISFDLSLARGLDYYTGVIYEAVLLQTPAQAGEEPLGVGSVAAGGRYDGLVGMFDPKGRKVPCVGLSIGVERIFSIVEQRLEALEEKIRTTETQVLVASAQKKLLEERLKLVSELWDAGIKAELLYKKNPKLLNQLQYCEEAGIPLVAIIGEQELKDGVIKLRSVTSREEVDVRREDLVEEIKRRTGQPL
stoichiometry N: 2
